{
  "source": "paper PMC8568920",
  "about": "“Serum apolipoprotein A-I potentiates the therapeutic efficacy of lysocin E against Staphylococcus aureus” (Nature Communications, 2021)",
  "system": "S. aureus",
  "experiment": "Lysocin E antimicrobial activity-enhancing activity (1 unit decreases the MIC of lysocin E to 1 µg ml−1)",
  "type": "cell-based, Staphylococcus aureus",
  "conditions": "ApoA species",
  "experimental": "Calf serum (10 ml) was added to 15 ml EtOH (60% v/v) and the mixture was centrifuged for 15 min. The collected supernatant was evaporated and suspended in 8 ml Milli-Q water (fraction [fr.] II). Fr. II with formic acid (0.1%) was applied to 10 ml of ODS resin (Waters Corporation, Milford, MA, USA). After washing with 25% EtOH and then 50% EtOH, the resin was eluted with 75% EtOH containing 0.1% formic acid. The eluted sample was evaporated and dissolved in 0.8 ml buffer A (10 mM phosphate buffer [pH 7.1], 6 M urea; Fr. III). Fr. III was applied to the Superose 12 10/300 GL gel filtration column (GE Healthcare) and eluted with the AKTApurifier system (GE Healthcare). The elution was performed in buffer A at a flow rate of 0.5 ml min^−1 and 60 fractions (0.5 ml per fr.) were collected in 2-ml tubes. All fractions, except for Fr. I, were dialysed in 10 mM phosphate buffer (pH 7.1) before assessment of their activities. Protein concentrations were measured using Coomassie Plus^TM protein assay reagent (Thermo Fisher) with bovine serum albumin as the standard. Amino acid sequence analysis was performed by in-gel digestion and mass spectrometric analysis. One unit was defined as the activity that decreases the MIC of lysocin E to 1 µg ml^−1.",
  "data": [
    {"molecule": "rmApoA-I: recombinant mouse ApoA-I (protein, UniProt Q00623 25-264, looked up) Apolipoprotein A-I: DEPQSQWDKVKDFANVYVDAVKDSGRDYVSQFESSSLGQQLNLNLLENWDTLGSTVSQLQERLGPLTRDFWDNLEKETDWVRQEMNKDLEEVKQKVQPYLDEFQKKWKEDVELYRQKVAPLGAELQESARQKLQELQGRLSPVAEEFRDRMRTHVDSLRTQLAPHSEQMRESLAQRLAELKSNPTLNEYHTRAKTHLKTLGEKARPALEDLRHSLMPMLETLKTQVQSVIDKASETLTAQ", "values": [
      {"measurement": "Specific activity for lysocin E antimicrobial enhancing activity", "value": 6400, "unit": "unit mg-1 protein"}
    ]}
  ]
}
